Data: US20200165325A1
Read-outs that look alike come from different tables or passages of the source.

Tests used:
[1] = biological target: HIV-1 Env of strain 928-28 (HIV-1)
[2] = biological target: HIV-1 Env of strain T255-34 (HIV-1)
[3] = biological target: HIV-1 Env of strain 6480.v4.c25 (HIV-1)
[4] = biological target: HIV-1 Env of strain 231965.c01 (HIV-1)
[5] = biological target: HIV-1 Env of strain CAAN5342.A2 (HIV-1)
[6] = biological target: HIV-1 Env of strain ZM109F.PB4 (HIV-1)
[7] = biological target: HIV-1 Env of strain R2184.c04 (HIV-1)
[8] = biological target: HIV-1 Env of strain P0402_c2_11 (HIV-1)
[9] = biological target: Env (gp120) of HIV-1 strain ZM197M.PB7 (HIV-1)
[10] = biological target: Env (gp120) of HIV-1 strain Du156.12 (HIV-1)
[11] = biological target: Env (gp120) of HIV-1 strain ZM53M.PB12 (HIV-1)
[12] = biological target: Env (gp120) of HIV-1 strain ZM249M.PL1 (HIV-1)
[13] = biological target: Env (gp120) of HIV-1 strain ZM109F.PB4 (HIV-1)
[14] = biological target: Env (gp120) of HIV-1 strain ZM135M.PL10a (HIV-1)
[15] = biological target: Env (gp120) of HIV-1 strain ZM214M.PL15 (HIV-1)
[16] = biological target: Env (gp120) of HIV-1 strain 3016.v5.c45 (HIV-1)
[17] = biological target: Env (gp120) of HIV-1 strain C2101.c01 (HIV-1)
[18] = biological target: Env (gp120) of HIV-1 strain QH0692.42 (HIV-1)
[19] = biological target: Env (gp120) of HIV-1 strain T257-31 (HIV-1)
[20] = biological target: Env (gp120) of HIV-1 strain AC10.0.29 (HIV-1)
[21] = biological target: Env (gp120) of HIV-1 strain SC422661.8 (HIV-1)
[22] = biological target: Env (gp120) of HIV-1 strain ZM214M.PL15 (HIV-1); remark: listed apart in the source
[23] = biological target: Env (gp120) of HIV-1 strain TRO.11 (HIV-1)
[24] = biological target: HIV-1 Env of strain SC422661.8 (HIV-1)
[25] = biological target: HIV-1 Env of strain T257-31 (HIV-1)
[26] = biological target: HIV-1 Env of strain ZM214M.PL15.11 (HIV-1)
[27] = biological target: HIV-1 Env of strain TRO.11 (HIV-1)
[28] = biological target: HIV-1 Env of strain AC10.0.29 (HIV-1)
[29] = biological target: HIV-1 Env of strain QH0692.42 (HIV-1)
[30] = biological target: HIV-1 Env of strain CAP45.2.00.G3 (HIV-1)
[31] = biological target: Env (gp120) of HIV-1 strain Du172.17 (HIV-1)
[32] = biological target: gp160 of HIV-1 strain YU2 with a substitution of 458gp120 (HIV-1)
[33] = biological target: Env (gp120) of HIV-1 strain 3718.v3.c11 (HIV-1)
[34] = biological target: Env (gp120) of HIV-1 strain T255-34 (HIV-1)
[35] = biological target: Env (gp120) of HIV-1 strain CAP45.2.00.G3 (HIV-1)
[36] = biological target: Env (gp120) of HIV-1 strain CAP210.2.00.E8 (HIV-1)

Substance: NIH45-46 G54F IgG (antibody)
- In vitro neutralization IC80 [1]: 0.41 µg/mL
- In vitro neutralization IC80 [2]: 0.198 µg/mL
- In vitro neutralization IC80 [3]: 0.046 µg/mL
- In vitro neutralization IC80 [4]: 0.062 µg/mL
- In vitro neutralization IC80 [5]: 0.28 µg/mL
- In vitro neutralization IC80 [6]: 0.17 µg/mL
- In vitro neutralization IC80 [7]: 0.054 µg/mL
- In vitro neutralization IC80 [8]: 0.047 µg/mL

Substance: NIH45-46 G54W IgG (antibody)
- In vitro neutralization IC80 [1]: 0.25 µg/mL
- In vitro neutralization IC80 [2]: 0.099 µg/mL
- In vitro neutralization IC80 [3]: 0.021 µg/mL
- In vitro neutralization IC80 [4]: 0.035 µg/mL
- In vitro neutralization IC80 [5]: 0.21 µg/mL
- In vitro neutralization IC80 [6]: 0.07 µg/mL
- In vitro neutralization IC80 [7]: 0.036 µg/mL
- In vitro neutralization IC80 [8]: 0.023 µg/mL

Substance: NIH45-46 G54Y IgG (antibody)
- In vitro neutralization IC80 [1]: 0.33 µg/mL
- In vitro neutralization IC80 [2]: 0.174 µg/mL
- In vitro neutralization IC80 [3]: 0.051 µg/mL
- In vitro neutralization IC80 [4]: 0.054 µg/mL
- In vitro neutralization IC80 [5]: 0.27 µg/mL
- In vitro neutralization IC80 [6]: 0.168 µg/mL
- In vitro neutralization IC80 [7]: 0.045 µg/mL
- In vitro neutralization IC80 [8]: 0.049 µg/mL

Substance: NIH45-46 IgG (antibody)
- neutralization IC50 [9]: 0.14 µg/mL
- neutralization IC50 [10]: 0.01 µg/mL
- neutralization IC50 [11]: 0.65 µg/mL
- neutralization IC50 [12]: 0.02 µg/mL
- neutralization IC50 [13]: 0.22 µg/mL
- neutralization IC50 [14]: 0.36 µg/mL
- neutralization IC50 [15]: 0.05 µg/mL
- neutralization IC50 [16]: > 30 µg/mL
- neutralization IC50 [17]: 12.8 µg/mL
- neutralization IC50 [18]: 0.7 µg/mL
- neutralization IC50 [19]: 0.5 µg/mL
- neutralization IC50 [20]: 0.9 µg/mL
- neutralization IC50 [21]: 0.05 µg/mL
- neutralization IC50 [22]: 0.3 µg/mL
- neutralization IC50 [23]: 1.9 µg/mL

Substance: NIH45-46 IgG (wild type) (antibody)
- In vitro neutralization IC50 [24]: 0.05 µg/mL
- In vitro neutralization IC50 [25]: 0.5 µg/mL
- In vitro neutralization IC50 [26]: 0.5 µg/mL
- In vitro neutralization IC50 [27]: 1.9 µg/mL
- In vitro neutralization IC50 [28]: 0.9 µg/mL
- In vitro neutralization IC50 [29]: 0.7 µg/mL
- In vitro neutralization IC50 [30]: > 50 µg/mL
- In vitro neutralization IC80 [1]: 0.64 µg/mL
- In vitro neutralization IC80 [2]: 3.44 µg/mL
- In vitro neutralization IC80 [3]: 0.1 µg/mL
- In vitro neutralization IC80 [4]: 0.126 µg/mL
- In vitro neutralization IC80 [5]: 0.4 µg/mL
- In vitro neutralization IC80 [6]: 0.437 µg/mL
- In vitro neutralization IC80 [7]: 0.127 µg/mL
- In vitro neutralization IC80 [8]: 0.214 µg/mL

Substance: NIH45-46^G54F IgG (antibody)
- neutralization IC50 [31]: 16 µg/mL

Substance: NIH45-46^G54W IgG (antibody)
- neutralization of pseudovirus carrying mutant gp160 [32]: > 1500 fold
- improvement of neutralization potency over NIH45-46 [33]: 2000 fold
- improvement of neutralization potency over NIH45-46 [34]: > 700 fold
- neutralization IC50 [35]: 32.2 µg/mL
- neutralization IC50 [36]: > 50 µg/mL
- neutralization IC50 [31]: 0.9 µg/mL

Substance: NIH45-46^G54Y IgG (antibody)
- neutralization IC50 [35]: > 50 µg/mL
